Data on 1 substance can be found in publication PMC8059821.

This assay has as its target hACE2-NN-Fc 5mut (human) (UniProt Q9BYF1). Briefly: SPR.

For “soluble monomeric SARS2-RBD (from UniProt P0DTC2) (domain or fragment)”, the Kd was determined as 5.45 nM.
